Measured values as given in the supplement of paper PMC10724198.
± gives the standard deviation of the averaged measurements.

How the values were obtained:
Saccharomyces cerevisiae [1] = test: protein stability index of tFT-peptide fusion (C-terminal peptide) (PSI (0-1 scale)); higher = more stable (slower turnover)
Protocol: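 MPS profiling in S. cerevisiae of the tFT-X12 degron library: putative degron peptides plus stable controls, 12 aa, fused to the C-terminus of a sfGFP-mCherry timer. Cells are FACS-sorted into 8 mCherry/sfGFP bins and deep-sequenced. PSI runs from 0 (unstable) to 1 (stable). Backgrounds are wild type, das1Δ and doa10Δ at 30 °C, and wild type, das1Δ, cdc34-1 and cdc53-1 at 37 °C; 2-3 technical replicates each.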

Saccharomyces cerevisiae [2] = test: as above; details: genetic background: wild type; temperature: 30 C
[3] = genetic background: cdc34-1, temperature: 37 C
[4] = genetic background: cdc53-1, temperature: 37 C
[5] = genetic background: das1 deletion, temperature: 30 C
[6] = genetic background: das1 deletion, temperature: 37 C
[7] = genetic background: doa10 deletion, temperature: 30 C
[8] = genetic background: wild type, temperature: 30 C
[9] = genetic background: wild type, temperature: 37 C
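Note: PSI is a weighted mean of sequencing reads over stability bins, variants kept only with over 10 reads, mCherry proximal and sfGFP distal, peptide attached via GGGS linker.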

Sequence | protein stability index (Saccharomyces cerevisiae [1]; [3]) | protein stability index (Saccharomyces cerevisiae [1]; [4]) | protein stability index (Saccharomyces cerevisiae [1]; [5]) | protein stability index (Saccharomyces cerevisiae [1]; [6]) | protein stability index (Saccharomyces cerevisiae [1]; [7]) | protein stability index (Saccharomyces cerevisiae [1]; [8]) | protein stability index (Saccharomyces cerevisiae [1]; [9]) | protein stability index (Saccharomyces cerevisiae [2])
PVCRQVGVRLVA | 0.582 ± 0.022 | 0.625 ± 0.052 | 0.525 ± 0.025 | 0.6482 ± 0.0047 | 0.265 ± 0.0046 | 0.311 ± 0.034 | 0.466 ± 0.039 | 0.456 ± 0.045
NECLSSKWLRIC | 0.399 ± 0.013 | 0.661 ± 0.032 | 0.631 ± 0.029 | 0.726 ± 0.025 | 0.0791 ± 0.032 | 0.111 ± 0.039 | 0.147 ± 0.035 | 0.185 ± 0.0041
VWFLLFVVWCGS | 0.212 ± 0.01 | 0.282 ± 0.024 | 0.217 ± 0.022 | 0.384 ± 0.0055 | 0.186 ± 0.021 | 0.204 ± 0.034 | 0.316 ± 0.0071 | 0.309 ± 0.031
SPSFLVIFTMLL | 0.528 ± 0.023 | 0.577 ± 0.01 | 0.433 ± 0.034 | 0.6018 ± 0.0041 | 0.438 ± 0.044 | 0.444 ± 0.013 | 0.596 ± 0.017 | 0.468 ± 0.015
VEQLLYIKATNV | 0.689 ± 0.012 | 0.7025 ± 0.0067 | 0.6088 ± 0.0057 | 0.7288 ± 0.0038 | 0.238 ± 0.029 | 0.29 ± 0.036 | 0.5062 ± 0.0015 | 0.408 ± 0.019
GCLFMQVSLFWR | 0.0959 ± 0.027 | 0.164 ± 0.018 | 0.147 ± 0.038 | 0.295 ± 0.023 | 0.177 ± 0.0049 | 0.138 ± 0.044 | 0.26 ± 0.017 | 0.286 ± 0.028
SFTPPRVCLCFS | 0.465 ± 0.04 | 0.503 ± 0.008 | 0.319 ± 0.029 | 0.5205 ± 0.0047 | 0.2778 ± 0.002 | 0.3 ± 0.024 | 0.496 ± 0.02 | 0.3999 ± 0.0022
FLLFSFFFFFFF | 0.44531 ± 9.3e-05 | 0.4388 ± 0.0028 | 0.409 ± 0.041 | 0.52 ± 0.013 | 0.489 ± 0.037 | 0.384 ± 0.021 | 0.488 ± 0.008 | 0.482 ± 0.011
CVISLVTAVRLF | 0.514 ± 0.023 | 0.5526 ± 0.0029 | 0.453 ± 0.022 | 0.589 ± 0.019 | 0.405 ± 0.028 | 0.426 ± 0.026 | 0.544 ± 0.018 | 0.4644 ± 0.0021
VCCSSVSLLVFA | 0.362 ± 0.017 | 0.363 ± 0.01 | 0.267 ± 0.028 | 0.44 ± 0.0076 | 0.225 ± 0.0042 | 0.256 ± 0.033 | 0.419 ± 0.01 | 0.374 ± 0.023
RFLFYSFPIHTL | 0.442 ± 0.061 | 0.6164 ± 0.0028 | 0.572 ± 0.039 | 0.67 ± 0.043 | 0.0683 ± 0.0092 | 0.0745 ± 0.019 | 0.105 ± 0.033 | 0.128 ± 0.0043
SSVFRLKGLMFL | 0.622 ± 0.062 | 0.721 ± 0.042 | 0.65 ± 0.047 | 0.7146 ± 0.0016 | 0.262 ± 0.0081 | 0.277 ± 0.016 | 0.448 ± 0.012 | 0.442 ± 0.038
SFVCFFLNLFVY | 0.0549 ± 0.013 | 0.138 ± 0.013 | 0.172 ± 0.032 | 0.272 ± 0.017 | 0.123 ± 0.021 | 0.123 ± 0.019 | 0.18 ± 0.018 | 0.164 ± 0.0077
SSFFFLFCFFPS | 0.575 ± 0.13 | 0.619 ± 0.027 | 0.48 ± 0.062 | 0.646 ± 0.055 | 0.444 ± 0.031 | 0.449 ± 0.019 | 0.604 ± 0.017 | 0.471 ± 0.047
VGVVVVGDVLVW | 0.286 ± 0.071 | 0.375 ± 0.02 | 0.279 ± 0.03 | 0.423 ± 0.0065 | 0.2321 ± 0.0019 | 0.26 ± 0.025 | 0.402 ± 0.0091 | 0.424 ± 0.046
GLCLFLIGVFSV | 0.224 ± 0.0031 | 0.313 ± 0.06 | 0.246 ± 0.039 | 0.439 ± 0.022 | 0.2104 ± 0.0019 | 0.237 ± 0.023 | 0.381 ± 0.026 | 0.4425 ± 0.0022
VCGYGFAVPCYT | 0.489 ± 0.013 | 0.549 ± 0.021 | 0.37 ± 0.026 | 0.5832 ± 0.0026 | 0.327 ± 0.012 | 0.372 ± 0.012 | 0.535 ± 0.0076 | 0.437 ± 0.02
TKGIIKKINIIM | 0.624 ± 0.14 | 0.73 ± 0.039 | 0.617 ± 0.016 | 0.724 ± 0.0084 | 0.154 ± 0.0088 | 0.206 ± 0.035 | 0.467 ± 0.09 | 0.36 ± 0.014
CFPFYVSCLLVL | 0.3061 ± 0.0023 | 0.311 ± 0.0064 | 0.281 ± 0.029 | 0.405 ± 0.019 | 0.25 ± 0.0066 | 0.256 ± 0.02 | 0.351 ± 0.0055 | 0.321 ± 0.027
VRGWLAYLRWII | 0.58 ± 0.03 | 0.638 ± 0.026 | 0.631 ± 0.027 | 0.724 ± 0.0083 | 0.195 ± 0.012 | 0.205 ± 0.018 | 0.303 ± 0.0047 | 0.274 ± 0.018
